Reference: PMC11098746 (2024)
No end group written: not given here.

B1: ADP390 (protein)
chain: GTDDATADSRKTYTLTDYLKNTYRLKLYSLRWISDHEYLYKQENNILVFNAEYGNSSVFLENSTFDEFGHSINDYSISPDGQFILLEYNYVKQWRHSYTASYDIYDLNKRQLITEERIPNNTQWVTWSPVGHKLAYVWNNDIYVKIEPNLPSYRITWTGKEDIIYNGITDWVYEEEVFSAYSALWWSPNGTFLAYAQFNDTEVPLIEYSFYSDESLQYPKTVRVPYPKAGAVNPTVKFFVVNTDSLSSVTNATSIQITAPASMLIGDHYLCDVTWATQERISLQWLRRIQNYSVMDICDYDESSGRWNCLVARQHIEMSTTGWVGRFRPSEPHFTLDGNSFYKIISNEEGYRHICYFQIDKKDCTFITKGTWEVIGIEALTSDYLYYISNEYKGMPGGRNLYKIQLSDYTKVTCLSCELNPERCQYYSVSFSKEAKYYQLRCSGPGLPLYTLHSSVNDKGLRVLEDNSALDKMLQNVQMPSKKLDFIILNETKFWYQMILPPHFDKSKKYPLLLDVYAGPCSQKADTVFRLNWATYLASTENIIVASFDGRGSGYQGDKIMHAINRRLGTFEVEDQIEAARQFSKMGFVDNKRIAIWGWSYGGYVTSMVLGSGSGVFKCGIAVAPVSRWEYYDSVYTERYMGLPTPEDNLDHYRNSTVMSRAENFKQVEYLLIHGTADDNVHFQQSAQISKALVDVGVDFQAMWYTDEDHGIASSTAHQHIYTHMSHFIKQCFSLP
modifications: bait human Fc-tagged dimer
B2: ADP102 (protein)
chain: MARGAALALLLFGLLGVLVAAPDGGFDLSDALPDNENKKPTAIPKKPSAGDDFDLGDAVVDGENDDPRPPNPPKPMPNPNPNHPSSSGSFSDADLADGVSGGEGKGGSDGGGSHRKEGEEADAP
modifications: bait human Fc-tagged dimer
B3: ADP365 (protein)
chain: MALGSPGLLFLLFSSLRADTQEKEVRAMVGSDVELSCACPEGSRFDLNDVYVYWQTSESKTVVTYHIPQNSSLENVDSRYRNRALMSPAGMLRGDFSLRLFNVTPQDEQKFHCLVLSQSLGFQEVLSVEVTLHVAANFSVPVVSAPHSPSQDELTFTCTSINGYPRPNVYWINKTDNSLLDQALQNDTVFLNMRGLYDVVSVLRIARTPSVNIGCCIENVLLQQNLTVGSQTGNDIGERDKITENPVSTG
modifications: bait human Fc-tagged dimer
B4: ADP301 (protein)
chain: MAKLIALTLLGMGLALFRNHQSSYQTRLNALREVQPVELPNCNLVKGIETGSEDLEILPNGLAFISSGLKYPGIKSFNPNSPGKILLMDLNEEDPTVLELGITGSKFDVSSFNPHGISTFTDEDNAMYLLVVNHPDAKSTVELFKFQEEEKSLLHLKTIRHKLLPNLNDIVAVGPEHFYGTNDHYFLDPYLQSWEMYLGLAWSYVVYYSPSEVRVVAEGFDFANGINISPDGKYVYIAELLAHKIHVYEKHANWTLTPLKSLDFNTLVDNISVDPETGDLWVGCHPNGMKIFFYDSENPPASEVLRIQNILTEEPKVTQVYAENGTVLQGSTVASVYKGKLLIGTVFHKALYCEL
modifications: bait human Fc-tagged dimer
B5: ADP288 (protein)
chain: MDHSHHMGMSYMDSNSTMQPSHHHPTTSASHSHGGGDSSMMMMPMTFYFGFKNVELLFSGL
modifications: also: human Fc-tagged dimer
B6: ADP348 (protein)
chain: MAASAGAGAVIAAPDSRRWLWSVLAAALGLLTAGVSALEVYTPKEIFVANGTQGKLTCKFKSTSTTGGLTSVSWSFQPEGADTTVSFFHYSQGQVYLGNYPPFKDRISWAGDLDKKDASINIENMQFIHNGTYICDVKNPPDIVVQPGHIRLYVVEKENLPVFP
modifications: bait human Fc-tagged dimer
B7: ADP101 (protein)
chain: MWSTRSPNSTAWPLSLEPDPGMASASTTMHTTTIAEPDPGMSGWPDGRMETSTPTIMD
modifications: also: human Fc-tagged dimer
B8: ADP156 (protein)
chain: MAILSFLPVLATESDWADCKSPQPWGHMLLWTAVLFLAPVAGTPAAPPKAVLKLEPQWINVLQEDSVTLTCRGTHSPESDSIQWFHNGNLIPTHTQPSYRFKANNNDSGEYTCQTGQTSLSDPVHLTVLSEWLVLQTPHLEFQEGETIVLRCHSWKDKPLVKVTFFQNGKSKKFSRSDPNFSIPQANHSHSGDYHCTGNIGYTLYSSKPVTITVQAPSSSPM
modifications: bait human Fc-tagged dimer
B9: ADP366 (protein)
chain: MESKGASSCRLLFCLLISATVFRPGLGWYTVNSAYGDTIIIPCRLDVPQNLMFGKWKYEKPDGSPVFIAFRSSTKKSVQYDDVPEYKDRLNLSENYTLSISNARISDEKRFVCMLVTEDNVFEAPTIVKVFKQPSKPEIVSKALFLETEQLKKLGDCISEDSYPDGNITWYRNGKVLHPLEGAVVIIFKKEMDPVTQLYTMTSTLEYKTTKADIQMPFTCSVTYYGPSGQKTIHSEQAVFDIYYPTEQVTIQVLPPKNAIKEGDNITLKCLGNGNPPPEEFLFYLPGQPEGIRSSNTYTLTDVRRNATGDYKCSLIDKKSMIASTAITVHYLDLSLNPSGEVTRQIGDALPVSCTISASRNATVVWMKDNIRLRSSPSFSSLHYQDAGNYVCETALQEVEGLKKRESLTLIVEGKPQIKMTKKTDPSGLSKTIICHVEGFPKPAIQWTITGSGSVINQTEESPYINGRYYSKIIISPEENVTLTCTAENQLERTVNSLNVSAISIPEHDEADEISDENREKVNDQAK
modifications: bait human Fc-tagged dimer
B10: ADP389 (protein)
chain: PSSLSQEQSEQDAIYQNLTQLKAAVGELSEKSKLQEIYQELTQLKAAVGELPEKSKLQEIYQELTRLKAAVGELPEKSKLQEIYQELTRLKAAVGELPEKSKLQEIYQELTRLKAAVGELPEKSKLQEIYQELTELKAAVGELPEKSKLQEIYQELTQLKAAVGELPDQSKQQQIYQELTDLKTAFERLCRHCPKDWTFFQGNCYFMSNSQRNWHDSVTACQEVRAQLVVIKTAEEQNFLQLQTSRSNRFSWMGLSDLNQEGTWQWVDGSPLSPSFQRYWNSGEPNNSGNEDCAEFSGSGWNDNRCDVDNYWICKKPAACFRDE
modifications: bait human Fc-tagged dimer
B11: ADP329 (protein)
chain: MAPPGSSTVFLLALTIIASTWALTPTHYLTKHDVERLKASLDRPFTNLESAFYSIVGLSSLGAQVPDAKKACTYIRSNLDPSNVDSLFYAAQASQALSGCEISISNETKDLLLAAVSEDSSVTQIYHAVAALSGFGLPLASQEALSALTARLSKEETVLATVQALQTASHLSQQADLRSIVEEIEDLVARLDELGGVYLQFEEGLETTALFVAATYKLMDHVGTEPSIKEDQVIQLMNAIFSKKNFESLSEAFSVASAAAVLSHNRYHVPVVVVPEGSASDTHEQAILRLQVTNVLSQPLTQATVKLEHAKSVASRATVLQKTSFTPVGDVFELNFMNVKFSSGYYDFLVEVEGDNRYIANTVELRVKISTEVGITNVDLSTVDKDQSIAPKTTRVTYPAKAKGTFIADSHQNFALFFQLVDVNTGAELTPHQTFVRLHNQKTGQEVVFVAEPDNKNVYKFELDTSERKIEFDSASGTYTLYLIIGDATLKNPILWNVADVVIKFPEEEAPSTVLSQNLFTPKQEIQHLFREPEKRPPTV
modifications: bait human Fc-tagged dimer
B12: ADP150 (protein)
chain: MALQLWALTLLGLLGAGASLRPRKLDFFRSEKELNHLAVDEASGVVYLGAVNALYQLDAKLQLEQQVATGPALDNKKCTPPIEASQCHEAEMTDNVNQLLLLDPPRKRLVECGSLFKGICALRALSNISLRLFYEDGSGEKSFVASNDEGVATVGLVSSTGPGGDRVLFVGKGNGPHDNGIIVSTRLLDRTDSREAFEAYTDHATYKAGYLSTNTQQFVAAFEDGPYVFFVFNQQDKHPARNRTLLARMCREDPNYYSYLEMDLQCRDPDIHAAAFGTCLAASVAAPGSGRVLYAVFSRDSRSSGGPGAGLCLFPLDKVHAKMEANRNACYTGTREARDIFYKPFHGDIQCGGHAPGSSKSFPCGSEHLPYPLGSRDGLRGTAVLQRGGLNLTAVTVAAENNHTVAFLGTSDGRILKVYLTPDGTSSEYDSILVEINKRVKRDLVLSGDLGSLYAMTQDKVFRLPVQECLSYPTCTQCRDSQDPYCGWCVVEGRCTRKAECPRAEEASHWLWSRSKSCVAVTSAQPQNMSRRAQGEVQLTVSPLPALSEEDELLCLFGESPPHPARVEGEAVICNSPSSIPVTPPGQDHVAVTIQLLLRRGNIFLTSYQYPFYDCRQAMSLEENLPCISCVSNRWTCQWDLRYHECREASPNPEDGIVRAHMEDSCPQFLGPSPLVIPMNHETDVNFQGKNLDTVKGSSLHVGSDLLKFMEPVTMQESGTFAFRTPKLSHDANETLPLHLYVKSYGKNIDSKLHVTLYNCSFGRSDCSLCRAANPDYRCAWCGGQSRCVYEALCNTTSECPPPVITRIQPETGPLGGGIRITILGSNLGVQAGDIQRISVAGRNCSFQPERYSVSTRIVCVIEAAETPFTGGVEVDVFGKLGRSPPNVQFTFQQPKPLSVEPQQGPQAGGTTLTIHGTHLDTGSQEDVRVTLNGVPCKVTKFGAQLQCVTGPQATRGQMLLEVSYGGSPVPNPGIFFTYRENPVLRAFEPLRSFASGGRSINVTGQGFSLIQRFAMVVIAEPLQSWQPPREAESLQPMTVVGTDYVFHNDTKVVFLSPAVPEEPEAYNLTVLIEMDGHRALLRTEAGAFEYVPDPTFENFTGGVKKQVNKLIHARGTNLNKAMTLQEAEAFVGAERCTMKTLTETDLYCEPPEVQPPPKRRQKRDTTHNLPEFIVKFGSREWVLGRVEYDTRVSDVP
modifications: bait human Fc-tagged dimer
B13: ADP396 (protein)
chain: PSLIKQQVLKNVRIDPSSLSFNMWKEIPIPFYLSVYFFDVMNPSEILKGEKPQVRERGPYVYREFRHKSNITFNNNDTVSFLEYRTFQFQPSKSHGSESDYIVMPNILVLGAAVMMENKPMTLKLIMTLAFTTLGERAFMNRTVGEIMWGYKDPLVNLINKYFPGMFPFKDKFGLFAELNNSDSGLFTVFTGVQNISRIHLVDKWNGLSKVDFWHSDQCNMINGTSGQMWPPFMTPESSLEFYSPEACRSMKLMYKESGVFEGIPTYRFVAPKTLFANGSIYPPNEGFCPCLESGIQNVSTCRFSAPLFLSHPHFLNADPVLAEAVTGLHPNQEAHSLFLDIHPVTGIPMNCSVKLQLSLYMKSVAGIGQTGKIEPVVLPLLWFAESGAMEGETLHTFYTQLVLMPKVMHY
modifications: bait human Fc-tagged dimer
B14: ADP338 (protein)
chain: MAPRAARAPATLLLALGAVLWPAAGAWELTILHTNDVHSRLEQTSEDSSKCVNASRCMGGVARLFTKVQQIRRAEPNVLLLDAGDQYQGTIWFTVYKGAEVAHFMNALRYDAMALGNHEFDNGVEGLIEPLLKEAKFPILSANIKAKGPLASQISGLYLPYKVLPVGDEVVGIVGYTSKETPFLSNPGTNLVFEDEITALQPEVDKLKTLNVNKIIALGHSGFEMDKLIAQKVRGVDVVVGGHSNTFLYTGNPPSKEVPAGKYPFIVTSDDGRKVPVVQAYAFGKYLGYLKIEFDERGNVISSHGNPILLNSSIPEDPSIKADINKWRIKLDNYSTQELGKTIVYLDGSSQSCRFRECNMGNLICDAMINNNLRHTDEMFWNHVSMCILNGGGIRSPIDERNNGTITWENLAAVLPFGGTFDLVQLKGSTLKKAFEHSVHRYGQSTGEFLQVGGIHVVYDLSRKPGDRVVKLDVLCTKCRVPSYDPLKMDEVYKVILPNFLANGGDGFQMIKDELLRHDSGDQDINVVSTYISKMKVIYPAVEGRIKFSTGS
modifications: bait human Fc-tagged dimer

Biological target: Circumsporozoite protein (CSP) (Plasmodium falciparum (isolate 3D7), UniProt Q7K740)
Sequence (Q7K740 19-374): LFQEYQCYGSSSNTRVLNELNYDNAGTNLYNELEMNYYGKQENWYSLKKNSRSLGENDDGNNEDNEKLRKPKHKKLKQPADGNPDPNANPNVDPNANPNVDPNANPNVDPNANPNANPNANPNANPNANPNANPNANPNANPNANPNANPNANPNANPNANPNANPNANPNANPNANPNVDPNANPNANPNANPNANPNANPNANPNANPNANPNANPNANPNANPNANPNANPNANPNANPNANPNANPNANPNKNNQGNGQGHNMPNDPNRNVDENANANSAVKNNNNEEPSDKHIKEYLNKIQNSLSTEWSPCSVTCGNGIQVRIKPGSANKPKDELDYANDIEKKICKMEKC
Assay: AVEXIS screen signal:noise (double-corrected)

Row | Binder | binding score
1 | B1 | 0.756
2 | B2 | 0.919
3 | B3 | 2.12
4 | B4 | 1.58
5 | B5 | 0.576
6 | B6 | 0.706
7 | B7 | 1.1
8 | B8 | 1.12
9 | B9 | 3.25
10 | B10 | 0.72
11 | B11 | 0.882
12 | B12 | 0.742
13 | B13 | 2.67
14 | B14 | 1.27
